T1: human LSAMP, expressed on HEK293 cells (human, UniProt Q13449 29-315)
T1 construct: also called BC033803
T1 sequence: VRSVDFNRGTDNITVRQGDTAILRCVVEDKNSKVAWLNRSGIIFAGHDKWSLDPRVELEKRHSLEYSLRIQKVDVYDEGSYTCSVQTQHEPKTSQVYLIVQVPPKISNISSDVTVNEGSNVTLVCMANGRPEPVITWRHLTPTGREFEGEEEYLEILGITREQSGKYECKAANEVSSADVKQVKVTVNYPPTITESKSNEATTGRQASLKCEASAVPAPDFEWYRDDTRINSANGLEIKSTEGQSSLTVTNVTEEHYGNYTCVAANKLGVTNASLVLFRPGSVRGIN

T2: human CD20, expressed on HEK293 cells (human, UniProt P11836 1-297)
T2 construct: whole, on cells
T2 sequence (looked up): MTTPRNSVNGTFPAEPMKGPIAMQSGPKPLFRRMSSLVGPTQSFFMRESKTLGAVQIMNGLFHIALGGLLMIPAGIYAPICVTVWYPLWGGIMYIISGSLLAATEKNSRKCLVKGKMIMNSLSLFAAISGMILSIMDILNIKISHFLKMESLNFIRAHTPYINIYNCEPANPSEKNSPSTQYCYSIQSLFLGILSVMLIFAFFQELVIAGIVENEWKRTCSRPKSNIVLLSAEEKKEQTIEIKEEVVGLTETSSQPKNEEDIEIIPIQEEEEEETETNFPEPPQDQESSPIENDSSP

T3: human BTN2A1, expressed on HEK293 cells (human, UniProt Q7KYR7 29-527)
T3 construct: also called NM_007049
T3 sequence: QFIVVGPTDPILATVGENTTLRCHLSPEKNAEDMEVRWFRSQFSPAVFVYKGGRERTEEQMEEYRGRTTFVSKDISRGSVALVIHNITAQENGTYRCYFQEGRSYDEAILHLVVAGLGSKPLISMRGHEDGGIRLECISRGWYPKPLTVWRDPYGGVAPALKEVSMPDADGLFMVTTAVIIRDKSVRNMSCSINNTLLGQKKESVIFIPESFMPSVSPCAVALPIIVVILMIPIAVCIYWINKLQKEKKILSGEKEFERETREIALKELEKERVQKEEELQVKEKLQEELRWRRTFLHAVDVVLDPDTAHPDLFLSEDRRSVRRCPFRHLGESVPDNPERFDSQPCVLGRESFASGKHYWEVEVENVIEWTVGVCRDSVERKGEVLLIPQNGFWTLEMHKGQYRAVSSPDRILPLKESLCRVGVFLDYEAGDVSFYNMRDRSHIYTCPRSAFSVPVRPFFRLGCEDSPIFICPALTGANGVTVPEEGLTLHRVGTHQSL

T4: cynomolgus monkey PD1 human Fc tagged recombinant protein (cynomolgus monkey, UniProt Q15116 25-170 (human entry), limits assumed)
T4 construct: also called cyno PD1-Fc; cyPD1
T4 chain: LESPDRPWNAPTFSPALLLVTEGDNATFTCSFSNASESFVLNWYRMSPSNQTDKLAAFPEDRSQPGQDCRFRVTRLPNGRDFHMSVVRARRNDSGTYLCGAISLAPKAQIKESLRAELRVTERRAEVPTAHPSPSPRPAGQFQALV


Assays:
[1] = target: T1, human LSAMP, expressed on HEK293 cells; test: flow cytometry on transfected HEK293 cells, no primary antibody
[2] = target: T2, human CD20, expressed on HEK293 cells; test: as above
[3] = target: T3, human BTN2A1, expressed on HEK293 cells; test: as above
[4] = target: T3, human BTN2A1, expressed on HEK293 cells; test: flow cytometry on live transfected HEK293 cells
Protocol: (§1) FIG. 11. […] Analyses of binding specificity were performed on HEK293 cells transiently transfected with plasmids encoding either human PD1, human BTN2A1, human LSAMP, human CD20 or ZS green marker only. Each antibody was used in staining at […] concentration and histograms are indicated per antibody in this figure.
(§2) Human cell membrane receptor proteome arrays were performed at Retrogenix Ltd. Primary screens: 2 μg/ml of each antibody was screened for binding against fixed HEK293 cells/slides expressing 5528 human plasma membrane and tethered secreted proteins individually. […] Antibody binding was detected using AF647 fluorescent secondary anti-human IgG1 antibody. Primary hits (duplicate spots) were identified by analysing fluorescence (AF647 and ZsGreen1) on ImageQuant. Confirmation/specificity screens: Expression vectors encoding ZsGreen1 only, or ZsGreen1 and CD20, PD1, BTN2A1, or LSAMP were transfected into human HEK293 cells. […] Cells were washed, and incubated with the same AF647 anti-human IgG Fc detection antibody as used in the cell microarray screens. Cells were again washed, and analysed by flow cytometry using an Accuri flow cytometer (BD). A 7AAD live/dead dye was used to exclude dead cells, and ZsGreen1-positive cells (i.e. transfected cells) were selected for analyses.

[5] = target: T1, human LSAMP, expressed on HEK293 cells; test: flow cytometry on transfected HEK293 cells, 2 ug/ml IgG
Protocol: as §1, §2

[6] = target: T2, human CD20, expressed on HEK293 cells; test: as above
Protocol: as §1, §2

[7] = target: T3, human BTN2A1, expressed on HEK293 cells; test: as above
Protocol: as §1, §2

[8] = target: T5, biotinylated human PD1-His/AviTag (human, UniProt Q15116 25-170, biotinylated (AviTag)); test: AlphaScreen epitope competition; competitor mu317 IgG on biotinylated monomeric human PD1
T5 construct: also called biotinylated monomeric human PD1
T5 sequence (Q15116 25-170 limits assumed): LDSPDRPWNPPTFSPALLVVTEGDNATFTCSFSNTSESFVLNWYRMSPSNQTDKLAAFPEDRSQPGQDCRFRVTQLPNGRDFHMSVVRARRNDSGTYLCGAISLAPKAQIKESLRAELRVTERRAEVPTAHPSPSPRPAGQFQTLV
Protocol: (§3) The AlphaScreen assay (Perkin Elmer) was performed in a 25 μl final volume in 384-well white microtiter plates (Greiner). The reaction buffer contained 1×PBS pH 7.3 (Oxoid, Cat. nr. BR0014G) and 0.05% (v/v) Tween® 20 (Sigma, Cat. nr. P9416). Purified IgG samples were titrated in three fold serial dilutions starting at 500 nM final concentration and incubated with biotinylated human PD1-His/AviTag at 0.6 nM final concentration for 20 minutes at room temperature. […] Followed by addition of the Streptavidin Donor beads at 20 μg/ml (final concentration) and incubation for 30 minutes at room temperature. The emission of light was measured in the EnVision multilabel plate reader (Perkin Elmer) and analysed using the EnVision manager software. Values were reported as Counts Per Second (CPS) and corrected for crosstalk.

[9] = target: T6, human PD1 human Fc tagged recombinant protein (human, UniProt Q15116 25-170); test: direct titration ELISA, IgG1null on coated PD1-Fc
T6 construct: also called human PD1-Fc; huPD1
T6 sequence (Q15116 25-170 limits assumed): as above
Protocol: (§4) Binding and cross-reactivity of the lead panel to the recombinant proteins was initially assessed by binding ELISA. The human PD1 human Fc tagged recombinant protein and the cynomolgus monkey PD1 human Fc tagged recombinant protein were coated to the surface of MaxiSorp™ flat-bottom 96 well plate at 1 μg/ml. The Fab samples were applied at 1:5 dilution in 1% Skimmed Milk/1×PBS; 1 h at RT; 100 μl/well. IgGs were titrated in two fold serial dilutions starting from 500 nM to 0.98 nM and allowed to bind to the coated antigens. The Fabs were detected using mouse anti-c-myc antibody followed by donkey anti-mouse IgG conjugated to horseradish peroxidase. The IgGs were detected using the mouse anti-human IgG conjugated to horseradish peroxidase. Binding signals were visualized with 3,3′,5,5′-Tetramethylbenzidine Substrate Solution (TMB) and the absorbance measured at 450 nm.

[10] = target: T4, cynomolgus monkey PD1 human Fc tagged …; test: direct titration ELISA, IgG1null on coated PD1-Fc
Protocol: as §4

[11] = target: T5, biotinylated human PD1-His/AviTag; test: AlphaScreen epitope competition; titrated IgG against mu317 IgG (parental IgG, 0.3 nM) on biotinylated monomeric human PD1
Protocol: as §3

[12] = target: T4, cynomolgus monkey PD1 human Fc tagged …; test: direct titration ELISA, IgG1null on coated PD1-Fc (reference antibody)
Protocol: as §4

| binding result [4] | fold fluorescence change versus mock (ZSgreen only) cells [5] [fold] | fold fluorescence change versus mock (ZSgreen only) cells [6] [fold] | fold fluorescence change versus mock (ZSgreen only) cells [7] [fold] | IC50 [8] [nM] | Molecule | other results |
| --- | --- | --- | --- | --- | --- | --- |
|  |  |  |  |  | AF647 anti-human IgG Fc detection antibody alone | fold fluorescence change versus mock (ZSgreen only) cells [1]: 1.5 fold; fold fluorescence change versus mock (ZSgreen only) cells [2]: 0.9 fold; fold fluorescence change versus mock (ZSgreen only) cells [3]: 1.1 fold |
| no binding (tested: 2 ug/ml) | 7.1 | 0.9 | 1.1 | 0.39 | Antibody MH8, IgG1null format (antibody, V domains shown, Tested as IgG1null (human IgG1 L234A, L235A, G237A) with human Ckappa; also called clone MH8) VH: EVQLVESGGGLVQPGGSLRLSCAASGFTFSSYGMSWVRQAPGKGLEWVANIWQDGSTKYVDSVKGRFTISRDNAKNSLYLQMNSLRAEDTAVYYCARAYGNYWYIDRWGQGTTVTVSS VL: DIVMTQSPDSLAVSLGERATINCKSSQSVTNDVAWYQQKPGQPPKLLINYAYHRFTGVPDRFSGSGYGTDFTLTISSLQAEDVAVYYCHQAYSTPYTFGQGTKLEIK |  |
|  |  |  |  |  | Antibody 09C06, IgG1null format (antibody, V domains shown, Library-derived clone; Tested as IgG1null (human IgG1 L234A, L235A, G237A) with human Ckappa; also called clone 09C06) VH: EVQLVESGGGLVQPGGSLRLSCAASGFSFSSYGMHWVRQAPGKGLEWVANIWQDGSTNYVDSVKGRFTISRDNAKNSLYLQMNSLRAEDTAVYYCARAYGNYWYIDRWGQGTTVTVSS VL: DIVMTQSPDSLAVSLGERATINCKSSQSVSNDVAWYQQKPGQPPKLLINYASHRFTGVPDRFSGSGYGTDFTLTISSLQAEDVAVYYCHQAYSTPYTFGQGTKLEIK | binding result [9]: binds; binding result [10]: binds |
|  | 4.1 | 1.1 | 1.3 | 0.624 | Antibody MH12, IgG1null format (antibody, V domains shown, Tested as IgG1null (human IgG1 L234A, L235A, G237A) with human Ckappa; also called clone MH12) VH: EVQLVESGGGLVQPGGSLRLSCAASGFTFSSYGMSWVRQAPGKGLEWVANIWQDGSEKYVDSVKGRFTISRDNAKNSLYLQMNSLRAEDTAVYYCARAYGNYWYIDRWGQGTTVTVSS VL: DIVMTQSPDSLAVSLGERATINCKSSQSVTNDVAWYQQKPGQPPKLLINYAYHRFTGVPDRFSGSGYGTDFTLTISSLQAEDVAVYYCHQAYSTPYTFGQGTKLEIK |  |
| no binding (tested: 2 ug/ml) | 1.9 | 1.1 | 1.2 | 0.63 | Antibody MH4, IgG1null format (antibody, V domains shown, Tested as IgG1null (human IgG1 L234A, L235A, G237A) with human Ckappa; also called clone MH4) VH: EVQLVESGGGLVQPGGSLRLSCAASGFSLSSYGMSWVRQAPGKGLEWVAVIWQDGSTNYVDSVKGRFTISRDNAKNSLYLQMNSLRAEDTAVYYCARAYGNYWYIDRWGQGTTVTVSS VL: DIVMTQSPDSLAVSLGERATINCKSSQSVTNDVAWYQQKPGQPPKLLINYAYHRFTGVPDRFSGSGYGTDFTLTISSLQAEDVAVYYCHQAYSTPYTFGQGTKLEIK |  |
|  |  |  |  |  | Mu317 murine anti-PD1 v-domains, produced in human IgG1null format (antibody, V domains shown, Tested as IgG1null (human IgG1 with L234A, L235A, G237A) with human Ckappa; also called Mu317 IgG1; parental IgG) VH: QVQLKESGPGLVAPSKNLSITCTVSGFSLTSYGVHWIRQPPGKGLEWLGVIWAGGSTNYNSALMSRLSISKDNSRSQVFLRMNSLQTDDTAMYYCARAYGNYWYIDVWGAGTTVTVSS VL: DIVMTQTPKFLLVSAGDRVTITCKASQSVSNDVAWYQQKPGQSPKLLINYAFHRFTGVPDRFTGSGYGTDFIFTISTVQAEDLAVYFCHQAYSSPYTFGGGTKLEMK | IC50 [11]: 0.37 nM; binding result [12]: binds |
